{
  "source": "the DeepSol protein solubility set",
  "data": [
    {"experiment": "soluble on expression in E. coli; label from the status in PepcDB or PDB records", "values": [
      {"sequence": "MSLKSVVNDTDGIVRVAKSVIPEIKHQDEVRVKIASSGLCGSDLPRIFKNGAHYYPITLGHEFSGYIDAVGSGVDDLHPGDAVACVPLLPCFTCPECLKGFYSQCAKYDFIGSRRDGGFAEYIVVKRKNVFALPTDMPIEDGAFIEPITVGLHAFHLAQGCENKNVIIIGAGTIGLLAIQCAVALGAKSVTAIDISSEKLALAKSFGAMQTFNSSEMSAPQMQSVLRELRFNQLILETAGVPQTVELAVEIAGPHAQLALVGTLHQDLHLTSATFGKILRKELTVIGSWMNYSSPWPGQEWETASRLLTERKLSLEPLIAHRGSFESFTQAVRDIARNAMQGKVLLIPEGHHHHHH", "soluble on expression in E. coli": "soluble"},
      {"sequence": "MNSGYSANIFPSSSSPTLYQSHQLPNPSATMYQATPRDMGKPPVRGKTSPYGFFVKMCYEEHKKKYPNENVQVTEISKKCSEKWKTMVDDEKRRFYELAQKDAERYQAEVSVAAYGGEDAMRKRKRAKKDPHAPKRALSAFFFYSQDKRPEIQAGHPDWKVGQVAQELGKMWKLVPQETKDMYEQKAQADKDRYADEMRNYKAEMQKMSGMDHYDDDNIHHVVHVEDINSQNIS", "soluble on expression in E. coli": "not soluble"},
      {"sequence": "MGSDKIHHHHHHMSSAQVNGISKRLIVESPNVKLEDGVLESRFTYRKNHFEHRADGLHVTPKEHDYSFKTVLKPRKTGLLLVGLGGNNGSTAVGSIFANQYAMTWRTKEGHSQANYFGSVTQTATVHLGYDSATQNQIFVPFKDIVPILSPNDLIISGWDISDSNLYEAMGRAKVFEPELQEKLRPFMEPIVPLPSIYYPDFIASNQGDRANNVIPGDNKLEHLEHIRADIRKFKQEHELECVIVLWTANTERYTDVRQGLNATADEIMESIRVNEDEVSPSNIFAVASILEGAHYINGSPQNTLVPGLIELAERHKVFVGGDDFKSGQTKFKSAFVDFLVSSGMKPESIVSYNHLGNNDGKNLSEARQFRSKEISKSSVVDDMVKSNQILFPDAKNPDYCVVIKYVPYVADSKRAMDEYICSIFMGGKQTFVVHNTCEDSLLASPLIYDLAILTELASRVSYKVDDEYKPFHSVLSILSLLLKAPVVPPGTPISNAFMRQFSTLTKLVTALAGFPSDTDMQIEFFTQLPAAKSKSQ", "soluble on expression in E. coli": "soluble"},
      {"sequence": "MKFNKSTMEANGDTSACNGYSDKQRKDVRVWCDGCYDMVHFGHANSLRQAKALGDKVIVGIHTDEEITKHKGPPVFTEEERVKMVKGIKWVDEVVLGAPYVTTLDVLDQNNCDFCVHGDDITMTAEGVDTYHLVKSANRYKEVKRTAGVSTTD", "soluble on expression in E. coli": "not soluble"},
      {"sequence": "MSHGSPAPSASVSSDGEEPEIDVMPSSDEESEPIYIPKEKEPVVIRGVGNITVFGMNSRFNTEYPPELTGYIAPEELSATLSRVNSVLKRHVQTSSRWLLCGLAFCCCSIGCSMWPVLCLNRRTVLALEKCLDHENVSLYHKLGLHWSLARRPTEPSDRLTEYVLELKTLPKPALNLPD", "soluble on expression in E. coli": "not soluble"},
      {"sequence": "MCDIGNLTQYRQAQEDILRGRVKVRVVGQDKGGGVVMGEGVEIAPGARIEGPVLIGGACHIATGAVVGPFTVLGPYTRVEEGATVRRSVLWDNVYTGEGANVRGLEHHHHHH", "soluble on expression in E. coli": "not soluble"},
      {"sequence": "RTMGFYVAKGNPKNITGWEDFRRDDLTMVNRERGCGTRILLDEHLRLLNIDGNKINGYSRESLSHLAIASIISRNGADIGIGNEKTGLQVANIDFIPIQRERYDLVIRKDDIEKPPFKAIIDILQSETFKSELMGIGGYDLTQTG", "soluble on expression in E. coli": "not soluble"},
      {"sequence": "MKRTGILLVNLGTPKDSSKTEVRKYLKTFLSDRRVIKIHPIIWKPILNGIILNIRPKKSAKLYQKICTENGFPLLEYTEKQMENLKNICPEVEVTIGMSYSEPSIETALDTLLSKEIEELNVIPMYPQYSGTTVGSVFDSVMNYFIKSDRIVDIKFIRSFYNNPQYIDYFSKKINEALNESPIDAIVFSYHGIPMSYVKDGDNYPKECTK", "soluble on expression in E. coli": "not soluble"},
      {"sequence": "MSLTDNLVRVVCVSDTHNTKPNLPDGDILIHAGDLTESGTKEELEKQIYWLDSQPHRYKIVIAGNHETFLDRNYHSHHGNERVTMDWKSLIYLENTSAILDLGAGHQLKVFGSPYTPKHGNGAFQYPRTDTTTWEEIPKDTDLLVTHGPPKAHLDLGHLGCRVLRQALWEMESRPLLHVFGHIHGGYGKEEGHHHHHH", "soluble on expression in E. coli": "soluble"},
      {"sequence": "MTADSCNPCLTLENTIDVQEVPMTKSVVLADPRGFCAGVDRAILTVQTILKAAEASGKRTREDGLPPVYVRRQIVHNKHVVEDLAGQGAVFVQELAEIPDAAAQAGIPVVFSAHGVSPVVKAEAERRGMHVVDATCPLVGKVHREVLRFVREGYEIVYIGHKGHDEAVGVVGESPEHVHLIEHESDVDSLDFAPDTKLVLLSQTTLSVDETADTIAALKAKFPWIQEPPSSDICYATSNRQAAVKLVAQQSDCVVIVGSANSSNSVRLMEVAQEGLGERGKAYRVDDASELDPAWFEGLESVGISSGASVPDELVSGVIDALQNLGFTGMKSVETIKENMHFVLPAELRRKKLEHHHHHH", "soluble on expression in E. coli": "soluble"},
      {"sequence": "MGSDKIHHHHHHMKAQSALSVKEANFKAMTTFIYTQGSATKQMFEHELGLSLPTITQNLRAMEADGLIVKGEMQKSTGGRKAQIYEFAAHSSVAIGVRIQTTRITAIAIDLNGKSVATRQRTLPYRNNDAYYQRMNDIINGFAQELAKQGSTVLGVAFCMQGIVSADGQSITFGKIMNNTGLKLSELSHGLNYPSLMIHDSDASAMAELWFDHNLKDAVCIYLERRPGGAVIVDGSLYQGPNQCNGSIEHMTLIPGGNTCYCGQQGCMDTYCSPETLMEDGESLPGFFSVLEQGEQEHRKRFSQWLDYVALAVTNIRSVLAGDVIISGEAAQYLDDDDMAGLRERVVEHTPFGTTDFTLRKGMALDHQDIIGAALRFVEPYVRELCDM", "soluble on expression in E. coli": "not soluble"},
      {"sequence": "MKTNSEELTVFVQVVESGSFSRAAEQLAMANSAVSRIVKRLEEKLGVNLLNRTTRQLSLTEEGAQYFRRAQRILQEMAAAETEMLAVHEIPQGVLSVDSAMPMVLHLLAPLAAKFNERYPHIRLSLVSSEGYINLIERKVDIALRAGELDDSGLRARHLFDSRFRVIASPEYLAKHGTPQSTEELAGHQCLGFTEPGSLNTWAVLDAQGNPYKISPHFTASSGEILRSLCLSGCGIVCLSDFLVDNDIAEGKLIPLLAEQTSDKTHPFNAVYYSDKAVNLRLRVFLDFLVEELGNNLCGKHHHHHH", "soluble on expression in E. coli": "soluble"},
      {"sequence": "MGSDKIHHHHHHMSKIVVLGAGPAGCSAGYHLAKSGHKVMLIDKDCFPRDKTCGDGISLGSVQALSTMGIYPDDIKRLASEYAQIDGFLLGVSNEISHLCPTELKGYCIPRFVFDNLLYQKAINAGCVARTQRISDIEGYHQELYSDFDYIIDARGVYAGEANAIAIRAYWSIKVADFPKIYLSKAQIYFDKAFGVNGYGWIFPVAVDSELVKLNVGVGVWLDEYQKNNTNIIRLFNEFVQRNQATKQLLSLVVSQQKPKAYPLATAKRANTVSYGKVFKIGDAANLTDPLTGEGIANAILSGLYVTQAINMSTSPELASENWQRLYQLYFEPDLDAGLQIKSFRKFSFINKLLIWLMNRNKPFAEQVTYTFAGLIPYKKLLP", "soluble on expression in E. coli": "not soluble"},
      {"sequence": "MGSDKIHHHHHHMIKALLTVSTILVSSHALATDKPADKPWHNEKPTLSTINAPTKVMPMVCKQTQALAYLKELQSGKKDIYSVKSNDHGGKGANDSGWLTWRVDDPTNLIPCPKGGAADTEVGMCWKELNDEPTVIGLVRVAPGTAAPHYHREMECYYGLSGQGLTWAQERMQPFGAGDYIEIPSKAIHYTPNTYDDQDLIYMYWFPLDGKFSTFKYQWPKDVGPGEQLMFDFVPYTNSKTVRSGNDGYGWDVIQKSKK", "soluble on expression in E. coli": "not soluble"},
      {"sequence": "MSLEGEKRVELHLHSPMSQMDAVTGIGKLVEQAKKWGHEAIALTDHAVVQSFPDAYSAAKKHGIKMIYGMEANLVDDGVPIAYNAAHRLLEEETYVVFDVETTGLSAVYDTIIELAAVKVKGGEIIDKFEAFANPHRPLSATIIELTGITDDMLQDAPDVVDVIRDFREWIGDDILVAHNASFDMGFLNVAYKKLLEVEKAKNPVIDTLELGRFLYPEFKNHRLNTLCKKFDIELTQHHRAIYDTEATAYLLLKMLKDAAEKGIQYHDELNENMGQSNAYQRSRPYHATLLAVNSTGLKNLFKLVSLSHIHYFYRVPRIPRSQLEKYREGLLIGSACDRGEVFEGMMQKSPEEVEDIASFYDYLEVQPPEVYRHLLELELVRDEKALKEIIANITKLGEKLNKPVVATGNVHYLNDEGHHHHHH", "soluble on expression in E. coli": "soluble"},
      {"sequence": "MSGSLEIPGLDDGLLPVETGYGLFQGTAKKRVVICNDNDKFRHSGPLPRALCGSFAAIGLLPLPVVETRPAPPPKVAPITPALQGKACGQAVFEGLRNKNAVETVDNLPALRQTARTGKRWKALESLMQETPAIIYKIVPETLWTAARAEGMFEGAAIDLTDGFIHFSTAKQVAETAARHFSGQVDLLLIAVDGAALGDKLVYEPSRGGDLFPHLYAPLPFSAVLWETPLSLDHDGQHQFPEILLEHHHHHH", "soluble on expression in E. coli": "not soluble"},
      {"sequence": "MGSDKIHHHHHHMKAKHTDLEKLEQLYKESGNQLVVLYGRRGCQKEELIKEFCDGKKFFYYRCRQASPEHQLEMMGEEISRQYKVSLSRQTYEEYFARIKSGDPSKLVVIIDEAQFVAKRDTSFMEAVAKLKKHKLYPGPVLIILATSSTVWATQEASEQFKGAEMKLESLNFLEVVRHFESLPVAEIVRIYGAIGGVPAYLDKWDAAKSFKENICRLVLTPSGALYGEADAVISSELRELSAYSTILAAIARGENKLNDIFHATGFSRAKISVYLKNLATFNIVEKVVSFETGGWENAKKGVYQIKDTFVNFWFKFVYPNMSNLYLLSPEEFYDTYIEKELDAYLERYFREVCTEYLLILNQMGQLPFTIKRVGTWIGKTGRIDIVAQSEDRRSIIGFCNWDKPMMTMDMCENMAMAMDQARLTSDDYYLFSATDFEPALQSYVVRDPRFKLINMNEL", "soluble on expression in E. coli": "not soluble"},
      {"sequence": "MADDPLYLDRTGEWAGLWWLPEIPDEKVPGFLRYDAECGLLLSLIGAFEDRVTSNPSPGVTAYHEGTRTWEVIHGVAEQREITLFDTIPISSKRTIGARVESPAKQTVTASVAIIGAHVRSEGDPQFAGVEVSVEDLGRWAGSSVFEGLLGAPDGNFDGTGSISVKPVEAQSVLVGGTEYRLVHTHTLPYFDQRKSETVGRMRDTVSIRIVPASPFSLNAALHEASLVQDLISLATHQSAGVIWLRVEVARSESQLPDGRTSPRRRADVLYSPVALGKHDAKPVDHHRMFFTCNSLPFEEVLPRWCETHVRLQAATNMILGLRYAPARFVENNLLTAVGAAEALHRNLRIGEKPFSKAEFTAMRGAMLDQVPSEHRERFKAAIRNDPTLRDRLHALAARPDEEAIGQLIPDVDYWAKRTTRARNDLAHEGRTPNHSFEELVAIVEVTTAVVILNVLQELGLSAERQREIVLTHPKLRHTVGLSREWLVPSKSD", "soluble on expression in E. coli": "not soluble"},
      {"sequence": "MSLKDICLKVFGDYACFTRPEMKVERVSYDIITPSAARAIFEAILWKPAIRWRVTKIEVLKPIRWISVRRNEVGAVASVRTAQTAMQAGRGDLGLYIEEERQQRAGLFLREVAYRLHARCEPTDRKGEQESPDKFLAMFHRRATNGQCFNQPYLGCREFAAHFEPVTNLDAAMADEPPITETRDLGWMLHDIDFANGIQPKFFRAHMQQGVIRVPEWNSEGVKGEGHHHHHH", "soluble on expression in E. coli": "soluble"},
      {"sequence": "MGSDKIHHHHHHMKGFITNIQRMSIHDGPGIRSTIFLKGCNLRCKWCHNPETWSMKPQLQYIEDKCIHCFSCITVCEYEVLFIDSNRLSIHRERCTDCGKCTERCTSGALSWIGKEVDSSDIIHEILQDLIYYQKSGGGITLSGGEPLQQKDFALDILQKCREHRIHTAVETNLLTDVNTLEAFLPWVDLWMCDFKMADDTLHRKWTGHSNVPIIKNLEFLAKQAVPLTIRTPVIPNVNDSEEAIESICRFIRQLPNQPAYELLGFHSLGFVKFENLGMKNPLSNSAFLKKGQLQKLKEILIRYNLNNNKK", "soluble on expression in E. coli": "not soluble"}
    ]}
  ]
}
